Experimental data reported in the supplement of paper PMC10567573.
± gives the standard deviation.

Assay: protein stability index of a GFP-peptide fusion (GPS, HEK-293T) (PSI 1-6); higher = more stable
Settings: c terminus: a fixed tail appended
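Further: 24-mer peptide tiles fused after GFP, lentivirally expressed, FACS-sorted into six equal bins by GFP/DsRed ratio, decoded by Illumina sequencing, PSI is the read-weighted mean bin number.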

Sequence	protein stability index (treatment: DMSO)	protein stability index (treatment: MLN4924 1 uM, 8 h)
HIGHVGWDPNTGFDLNNLDPELKN [WASL]	4.42 ± 0.24	4.47 ± 0.32
HILKARKVLTEPEVRYYLRQIVSG [PLK2]	2.17 ± 0.53	2.33 ± 0.43
HLEKKGPQVRDWSHYFKIIEDLRA [KRT18]	2.41 ± 0.13	2.69 ± 0.14
HLQHKLICTRKPEEIRGGGLLKYC [TENT5D]	2.21 ± 0.39	2.88 ± 0.095
HNIPLETIIPILQHLKYKEHPEAL [INTS3]	2.51 ± 0.31	2.55 ± 0.38
HNQKVHMHMVDLMSSIICEGDTVS [PDS5B]	2.46 ± 0.17	2.64 ± 0.26
HQAQLISKIPHILKEMYDADLLEE [EIF5]	2.94 ± 0.24	3.27 ± 0.59
HSGFEDELSEVLENQSSQAELKEA [CHGA]	5.5 ± 0.29	5.27 ± 0.33
HSIIISLVEAGAHTDMTNKQNKTP [FEM1B]	2.46 ± 0.49	2.63 ± 0.32
HSKGHKSSRQEKRPLCAQGDWHSP [ELOA2]	3.93 ± 0.28	4.23 ± 0.37
HSLEYIDLMETTQYMNEGELRVLA [HDAC6]	2.79 ± 0.4	3.04 ± 0.34
HTETKTITYESSQVDPGTDLEPGV [EPB41L3]	5.48 ± 0.17	5.37 ± 0.25
HTLAVMNDRLYAIGGNHLKGFSHL [KLHL14]	2.22 ± 0.12	2.18 ± 0.11
HVASLADDKMVRFWRIDEDYPVQV [WSB1]	2.4 ± 0.23	3.02 ± 0.51
IACYVMKHYRFTHAEIIAWIRICR [CDC14A]	2.37 ± 0.72	2.24 ± 0.53
IAHDGQRIYVLGGGTSWTAYSLNK [KLHDC10]	2.13 ± 0.38	2.1 ± 0.066
IAQYALLGYFIRSWRTLAILVNLQ [SLC22A15]	3.07 ± 0.51	2.78 ± 0.21
ICDKHWTAKNSRVVCGMFGFPGER [LOXL2]	2.42 ± 0.34	2.42 ± 0.35
ICEDSFDGRSLSKLNLCEDGPCHK [SCARA5]	4.55 ± 0.15	4.57 ± 0.16
ICTRKPEEIRGGGLLKYCSLLVHG [TENT5D]	2.24 ± 0.43	2.03 ± 0.3
IDGQGRPRTSQSEETRVWHRRDGK [CAMK2B]	5.2 ± 0.2	5.24 ± 0.11
IDIIPNPQERTLTLVDTGIGMTKA [HSP90AB1]	3.55 ± 0.19	3.43 ± 0.51

Sequence	protein stability index (treatment: DMSO)	protein stability index (treatment: MLN4924 1 uM, 8 h)
IDKNRRKSCQACRLRKCYEVGMVK [ESR2]	2.75 ± 0.34	3.08 ± 0.17
IDPETKKHIPYREHKSLTGTARYM [CSNK1G3]	3.38 ± 0.45	3.72 ± 0.18
IDSGSPAEEAGLKNNDLVVAVNGE [PDZK1]	5.45 ± 0.48	5.58 ± 0.2
IEANFPRRVLPCIPSEEWPNPPTL [FAF2]	2.9 ± 0.28	3.05 ± 0.22
IEILPNVCYTACATLKGPDSHYGT [BTBD1]	2.26 ± 0.19	2.31 ± 0.2
IFGDLCGNMANLSLHDHDGSSGAS [DVL3]	3.9 ± 0.45	4.27 ± 0.17
IFSAPNYCYRCGNQAAIMELDDTL [PPP2CA]	2.37 ± 0.6	2.29 ± 0.4
IGDSRPPSFHPHAGGGSQENLDND [DVL3]	5.56 ± 0.18	5.41 ± 0.1
IGLRQHHCRKCGKAVCGKCSSKRS [WDFY2]	4.08 ± 0.17	4.15 ± 0.26
IHKASATIIEPAGESDNPLRFTSG [INTS4]	4.03 ± 0.33	4.15 ± 0.25
IHLSAPCIYSEVMEALDLQPGLSF [PCMTD2]	2.23 ± 0.23	1.96 ± 0.41
IIRNVGKYREAARLEINVLKKIKE [CLK3]	2.68 ± 0.51	2.33 ± 0.27
IKNDKYGPWLEWEIMLQYCFPRLD [PRIM1]	–	3 ± 1
IKPNEILPPEKGREVAKELGIPYY [RHOBTB2]	3.73 ± 0.14	3.79 ± 0.12
IKQDINSLNKQIAQLQDFVRAKGS [STX5]	3.25 ± 0.12	3.38 ± 0.28
ILGVIGLFTIPLLYRQHQAQIDQY [RTN2]	3.28 ± 0.71	3.1 ± 0.84
ILLVGYPPFWDEDQHRLYKQIKAG [CAMK2A]	2.29 ± 0.32	2.24 ± 0.19
ILNSVEKYDPHTGHWTNVTPMATK [KLHL12]	3.15 ± 0.29	3.43 ± 0.44
ILRCWKCRKCIASSGCFMEYLENQ [RNF180]	2.36 ± 0.4	2.43 ± 0.46
IMVGFILYCSTPTRTAEPAESSVP [SLC35F2]	3.15 ± 0.68	2.62 ± 1
IPGLPGLRGLPGERGTPGLPGPKG [SCARA5]	4.34 ± 0.41	4.42 ± 0.22
IPHTHLLATLDPLALDREPPPHLL [WDR88]	3.23 ± 0.12	3.26 ± 0.14

Sequence	protein stability index (treatment: DMSO)	protein stability index (treatment: MLN4924 1 uM, 8 h)
IQDGTIHLYIYSIHSIPKGTEITI [KMT2E]	2.48 ± 0.43	3.24 ± 0.15
IQQELIKQEQSIISEYEKSLQFDE [RPAIN]	4.64 ± 0.12	4.67 ± 0.079
IQSKLGIVSLLLGTIHALIFAWNK [STEAP1]	2.35 ± 0.31	2.22 ± 0.31
IRDQMQQQLNDYEQLLDVKLALDM [LMNB1]	3.4 ± 0.25	3.48 ± 0.36
IRLMQRCWQGDPRVRPTFQEITSE [RIPK4]	2.798 ± 0.002	2.78 ± 0.45
ISEEIQMSTKESDFLCLLGVSYTF [MIA2]	2.4 ± 0.45	2.76 ± 0.92
ISHWHPNITINIVDDHTPWVKGSV [CLPTM1]	2.37 ± 0.22	2.03 ± 0.34
IVIWGVLTQKKPFADEKNILHIMV [RIPK4]	3.25 ± 0.88	2.92 ± 0.67
IVPNSNGVITTTPTPPGQYFYPRG [JUNB]	3.16 ± 0.27	3.35 ± 0.2
KAALAALCPGDLIQAINGESTELM [PDLIM4]	3.495 ± 0.025	3.77 ± 0.21
KAKANGITMYAVGVGKAIEEELQE [MATN2]	3.83 ± 0.33	4.12 ± 0.32
KAKKNKDKYVGVSSDSVGGFRYSE [CLINT1]	4.53 ± 0.19	4.58 ± 0.24
KARDWFQGHLRRLRSRYSVASFKF [MYORG]	2.21 ± 0.33	2.15 ± 0.29
KAVLENALRNFACLTTGDVIAINY [UFD1]	2.94 ± 1.7	2.3 ± 1
KCEQPFFWNIKQMWDTKTLGLRQH [WDFY1]	2.12 ± 0.17	2.38 ± 0.27
KCGDLECEALINRVSAMRDYRGPD [MIA2]	3.25 ± 0.63	3.21 ± 0.076
KDGVADSTVISSMPCLLMELRRDS [C18orf25]	3.25 ± 0.15	3.42 ± 0.35
KEMTQKLEALHLEALCEEDLLLWI [DENND6A]	2.23 ± 0.28	2.26 ± 0.32
KETEERTDGERVAEVAPEERENVA [SDE2]	5.64 ± 0.17	5.33 ± 0.42
KGDRGLPLEGSAKGKVQAELSQPL [RBBP5]	4.82 ± 0.33	4.75 ± 0.11
KGKKLYPVVSAVWGHCEIRMRYLN [SPSB1]	2.23 ± 0.35	2.26 ± 0.23
